Assay results from paper PMC5300038.

Biological target: 14-3-3ε (UniProt P62258)
Assay: anti-Flag IP, anti-14-3-3ε Western blot
Conditions: reference: wild type; sites S274,S299

binding against the reference: weaker
Substance: PITPNC1 (from UniProt Q9UKF7) S274/299A
